Tests used:
[1] = target: eIF4E (Homo sapiens, UniProt P06730); assay: PPI cat-ELCCA chemiluminescent competition assay of eIF4E–4E-BP1; assay type: binding
[2] = target: biotinylated eIF4E (eukaryotic translation initiation factor 4E), N-terminal HaloTag fusion (UniProt P06730); assay: ELISA
[3] = target: biotinylated eIF4E (eukaryotic translation initiation factor 4E), N-terminal HaloTag fusion (UniProt P06730); assay: PPI cat-ELCCA

Chain of biotinylated eIF4E (eukaryotic translation initiation factor 4E), N-terminal HaloTag fusion (P06730 whole entry, the tested form may be a part): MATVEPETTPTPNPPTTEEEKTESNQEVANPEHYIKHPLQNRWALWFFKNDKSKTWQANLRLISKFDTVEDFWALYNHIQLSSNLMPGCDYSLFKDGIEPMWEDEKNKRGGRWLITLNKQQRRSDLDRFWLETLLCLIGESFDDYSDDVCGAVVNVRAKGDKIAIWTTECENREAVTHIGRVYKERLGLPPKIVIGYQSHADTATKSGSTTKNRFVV
Chain of unlabeled 4E-BP1 protein (Q13541 whole entry): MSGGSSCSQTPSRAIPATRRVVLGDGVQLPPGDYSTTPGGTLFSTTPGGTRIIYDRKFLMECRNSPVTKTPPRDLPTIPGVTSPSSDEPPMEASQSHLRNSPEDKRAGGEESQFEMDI
Chain of eIF4E (P06730 2-217): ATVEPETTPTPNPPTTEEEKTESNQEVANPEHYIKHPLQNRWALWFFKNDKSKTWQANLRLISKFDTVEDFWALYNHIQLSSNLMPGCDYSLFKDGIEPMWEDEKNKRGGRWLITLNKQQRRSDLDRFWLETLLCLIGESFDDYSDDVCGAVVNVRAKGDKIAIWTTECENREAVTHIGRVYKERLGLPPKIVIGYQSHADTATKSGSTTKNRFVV
Chain of eIF4E (Q13541 2-118 partner): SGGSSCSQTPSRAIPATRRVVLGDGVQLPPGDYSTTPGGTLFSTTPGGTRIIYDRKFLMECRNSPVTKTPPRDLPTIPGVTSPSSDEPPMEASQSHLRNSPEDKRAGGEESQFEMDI
Chain of eIF4E (Q04637 whole entry partner, the tested form may be a part): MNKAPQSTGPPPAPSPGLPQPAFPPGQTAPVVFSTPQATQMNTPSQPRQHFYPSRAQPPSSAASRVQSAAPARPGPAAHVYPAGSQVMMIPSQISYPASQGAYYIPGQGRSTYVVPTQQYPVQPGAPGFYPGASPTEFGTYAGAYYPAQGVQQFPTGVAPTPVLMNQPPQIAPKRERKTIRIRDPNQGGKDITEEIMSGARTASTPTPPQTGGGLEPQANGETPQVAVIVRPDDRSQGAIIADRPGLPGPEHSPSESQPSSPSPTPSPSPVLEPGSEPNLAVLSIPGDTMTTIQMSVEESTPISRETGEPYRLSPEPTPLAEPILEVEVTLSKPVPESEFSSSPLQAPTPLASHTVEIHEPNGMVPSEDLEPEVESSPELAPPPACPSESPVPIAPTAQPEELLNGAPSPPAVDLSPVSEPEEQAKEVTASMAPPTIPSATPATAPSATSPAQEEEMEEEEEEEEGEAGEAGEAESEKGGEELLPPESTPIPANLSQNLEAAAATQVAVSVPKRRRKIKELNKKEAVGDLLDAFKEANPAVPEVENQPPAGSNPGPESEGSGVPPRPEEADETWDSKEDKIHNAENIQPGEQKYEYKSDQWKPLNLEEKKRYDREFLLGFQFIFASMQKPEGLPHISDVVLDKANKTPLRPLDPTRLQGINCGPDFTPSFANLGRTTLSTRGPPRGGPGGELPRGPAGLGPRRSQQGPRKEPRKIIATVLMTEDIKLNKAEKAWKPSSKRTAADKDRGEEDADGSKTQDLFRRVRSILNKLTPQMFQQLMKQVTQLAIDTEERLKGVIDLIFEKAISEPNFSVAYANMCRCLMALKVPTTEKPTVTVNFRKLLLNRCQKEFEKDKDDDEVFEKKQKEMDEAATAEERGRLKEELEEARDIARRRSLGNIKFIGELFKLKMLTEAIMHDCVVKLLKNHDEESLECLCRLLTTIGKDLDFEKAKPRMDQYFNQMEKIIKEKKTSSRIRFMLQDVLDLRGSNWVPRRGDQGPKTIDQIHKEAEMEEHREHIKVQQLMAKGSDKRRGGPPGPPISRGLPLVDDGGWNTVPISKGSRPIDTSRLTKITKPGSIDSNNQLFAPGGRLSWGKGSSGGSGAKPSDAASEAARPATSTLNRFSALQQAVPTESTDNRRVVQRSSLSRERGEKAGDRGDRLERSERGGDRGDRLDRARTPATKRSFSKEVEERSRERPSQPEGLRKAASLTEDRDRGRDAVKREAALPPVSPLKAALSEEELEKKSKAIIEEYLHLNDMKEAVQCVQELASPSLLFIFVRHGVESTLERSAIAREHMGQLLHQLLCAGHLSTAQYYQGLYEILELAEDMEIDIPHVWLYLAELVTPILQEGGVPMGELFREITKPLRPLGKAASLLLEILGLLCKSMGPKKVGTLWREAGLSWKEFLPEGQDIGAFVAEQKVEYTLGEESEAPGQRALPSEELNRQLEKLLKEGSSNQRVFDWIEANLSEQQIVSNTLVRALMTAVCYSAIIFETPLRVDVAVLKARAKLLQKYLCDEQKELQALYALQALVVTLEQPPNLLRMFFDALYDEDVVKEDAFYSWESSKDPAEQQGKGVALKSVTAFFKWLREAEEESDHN

Row | Compound | IC50 [1] [nM] | Kd [2] [nM] | IC50 [3] [nM]
1 | O=C(O)c1ccc(N2C(=O)/C(=C\c3ccc(-c4ccc([N+](=O)[O-])cc4)o3)C=C2c2ccccc2)cc1 [4E1RCat] | 1800 ± 600 |  | 
2 | unlabeled 4E-BP1 protein (from UniProt Q13541 1-118) (natural protein; other documents disagree on this pair) |  | 19 | 11

From publication PMC5939945 (ACS combinatorial science, 2017)
